Test results published in paper PMC10881517.
Each block holds one substance with its values, some of them ahead of it.

Legend:
[1] = molecular target: Mouse Cdh23 EC1-2 (mouse) (UniProt Q99PF4); experiment: AFM force-clamp spectroscopy (single molecule); Pcdh15 EC1-2 (WT or R113G) covalently on the cantilever, Cdh23 EC1-2 covalently on the coverslip (sortagging, Mal-PEG5000-NHS); contact 1-2 s, clamp 10 s; 25 mM HEPES, 100 mM NaCl, 50 mM KCl, 50 µM CaCl2; modified sliding-rebinding model fit of lifetime against force
Mouse Cdh23 EC1-2 (mouse), sequence (Q99PF4 24-228): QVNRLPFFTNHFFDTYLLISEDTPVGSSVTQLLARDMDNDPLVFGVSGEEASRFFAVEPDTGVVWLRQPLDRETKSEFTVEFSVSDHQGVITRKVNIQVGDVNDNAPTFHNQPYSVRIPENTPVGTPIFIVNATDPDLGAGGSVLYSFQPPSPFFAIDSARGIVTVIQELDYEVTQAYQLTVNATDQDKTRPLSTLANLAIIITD

[2] = molecular target: full-length Cdh23 EC1-27 (27 domains); experiment: AFM force-clamp spectroscopy (single molecule); Pcdh15 EC1-2 covalently on the cantilever, Cdh23 variants (EC1-5, EC1-10, EC1-21, EC1-27) covalently on the coverslip (sortagging, Mal-PEG2-NHS); contact 1-2 s, clamp 10 s; 25 mM HEPES, 100 mM NaCl, 50 mM KCl, 50 µM CaCl2; modified sliding-rebinding model fit with unfolding probabilities
Cdh23 EC1-5 = experiment: as above
Cdh23 EC1-10 = experiment: as above
Cdh23 EC1-21 = experiment: as above
[3] = molecular target: Pcdh15 EC1-11 PICA (cis-dimer); experiment: AFM force-clamp spectroscopy (single molecule); Cdh23 EC1-27-Fc dimer covalently on the cantilever, Pcdh15 EC1-11 PICA dimer covalently on the coverslip (sortagging); cantilever retracted 70 nm before clamping, clamping time 20 s; 25 mM HEPES, 100 mM NaCl, 50 mM KCl, 50 µM CaCl2; lifetimes from exponential fits of survival probability, Bell model fits

k+1 (intrinsic rate of reorganization, sliding-rebinding model) [1]: 0.6 s⁻¹
k-1 (intrinsic off-rate at zero force, single bond of the sliding-rebinding model) [1]: 0.3 s⁻¹
Substance: Pcdh15 EC1-2 (R113G), Q99PJ1 27-259 (domain or fragment; other documents disagree on this pair)

k+1 (intrinsic rate of reorganization, sliding-rebinding model) [2]: 0.5 s⁻¹
k+2 (intrinsic rate of rebinding, sliding-rebinding model) [2]: 0.5 s⁻¹
k-1 (intrinsic off-rate at zero force, single bond of the sliding-rebinding model) [2]: 0.29 s⁻¹
zero-force lifetime [2]: 3.4 s
k+1 (intrinsic rate of reorganization, sliding-rebinding model) (Cdh23 EC1-5): 0.9 s⁻¹
k+2 (intrinsic rate of rebinding, sliding-rebinding model) (Cdh23 EC1-5): 29.4 s⁻¹
k-1 (intrinsic off-rate at zero force, single bond of the sliding-rebinding model) (Cdh23 EC1-5): 0.61 s⁻¹
zero-force lifetime (Cdh23 EC1-5): 1.6 s
k+1 (intrinsic rate of reorganization, sliding-rebinding model) (Cdh23 EC1-10): 0.9 s⁻¹
k+2 (intrinsic rate of rebinding, sliding-rebinding model) (Cdh23 EC1-10): 7.8 s⁻¹
k-1 (intrinsic off-rate at zero force, single bond of the sliding-rebinding model) (Cdh23 EC1-10): 0.39 s⁻¹
k+1 (intrinsic rate of reorganization, sliding-rebinding model) (Cdh23 EC1-21): 1.2 s⁻¹
k+2 (intrinsic rate of rebinding, sliding-rebinding model) (Cdh23 EC1-21): 0.8 s⁻¹
k-1 (intrinsic off-rate at zero force, single bond of the sliding-rebinding model) (Cdh23 EC1-21): 0.35 s⁻¹
Substance: Mouse Pcdh15 EC1-2 (from UniProt Q99PJ1 27-259) (domain or fragment)

Substance: Cdh23 EC1-27 with the Fc region on its C-terminus (cis-dimer) (Fc fusion)
intrinsic lifetime (τ0), low-force slip regime extrapolated to zero force [3]: 31.8 s
lifetime in the ideal-bond region (τ0) [3]: 6.3 s
lifetime of the short-lived component of the bi-exponential decay at high forces (>70 pN) [3]: 1 s
τ0 of the Bell fit of the second slip region [3]: 8.4 s
